Measurements taken from article doi:10.1101/2022.12.09.519731 (bioRxiv, 2022).
“And” between values parts separate entries of the source, which are not always exact repeats. Equal entries are not always repeated. One block for each molecule: values may come before it.

Key:
[1] = molecular target: MalE-MglC (Myxococcus xanthus); assay: mass photometry
[2] = molecular target: MalE-RomR (Myxococcus xanthus); assay: mass photometry
MglA-His6 = molecular target: T1, MglA-His6 (Myxococcus xanthus, UniProt Q1DB04 1-195); assay: pull-down
T1 sequence: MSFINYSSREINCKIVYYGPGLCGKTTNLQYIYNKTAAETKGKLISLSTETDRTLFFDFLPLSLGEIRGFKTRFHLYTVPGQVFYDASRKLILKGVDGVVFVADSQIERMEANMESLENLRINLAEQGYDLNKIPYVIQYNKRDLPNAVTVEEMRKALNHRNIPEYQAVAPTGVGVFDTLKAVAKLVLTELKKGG

stoichiometry N [1]: 2
Molecule: MalE-MglC (natural protein)

stoichiometry N [2]: 3 and 2
stoichiometry N (RomR:MglC (2:2)) [1]: 1
stoichiometry N (RomR:MglC (3:2)) [1]: 1.5
Molecule: MalE-RomR (natural protein)

binding result (MglA-His6): binds
B1: His6-MglB (natural protein, Myxococcus xanthus)
chain: MGTQLVMYEEEFTKINAVCDRLTKDANAKVVFLVDKNGQLISSAGQTQNIDTTSLASLTAGNVAAMGGLAKLIGENEFPNQFHEGAKDSLYMTIVGSRVVLVVIFDNRTSLGLVRLRIKKASDELTKIFESLVKKTDSPGAGSPFAEISDDDIDNLFSE
